How the values were obtained:
apigenin = experiment: Conversion of apigenin to vitexin by intracellularly expressed enzyme, flask culture; assay type: cell-based, E. coli
Experimental: (§1) As such, 70 μM luteolin, 0.5 mM naringenin, or 185.2 μM apigenin was co-administered, followed by culture for an additional 36 hours. The amounts of substrate and product were analyzed by LC-MS. Flask culture was carried out in a 250 mL baffled flask containing 50 mL of R/2 medium (supplemented with 3 g/L yeast extract and 20 g/L glucose), and culture was performed at 30° C. and 200 rpm.

aloesone = experiment: Aloesin production from aloesone by GtCGT and variants in E. coli BL21(DE3), flask culture; assay type: cell-based
Experimental: Also, in LC-MS/MS for aloesin analysis, MS (Agilent 6550 iFunnel Q-TOF LC/MS System) coupled with ultra HPLC (UHPLC; 1290 Infinity II LC System; Agilent) was used. Here, an Eclipse-plus C18 column was used, and 0.1% formic acid was used as buffer A, and acetonitrile to which 0.1% formic acid was added was used as buffer B.
Thereafter, in order to test the production of aloesin, the pCDF-GtCGT or pCDF-GtCGT^V93Q/Y193F plasmid was transformed into the BL21(DE3) strain containing pWAS-anti-pabA, pRSF-RpALS, and pBBR1-zwf plasmids, followed by flask culture.
Similarly to the test for increased production of aloesone, RpALS was additionally introduced to increase aloesin production. To this end, pCDF-RpALS-GtCGT^V93Q/Y193F was constructed instead of introducing pCDF-GtCGT^V93Q/Y193F. Specifically, RpALS was amplified from pCDF-RpALS using pCDFDuet F and pCDFDuet R primers, and inserted into the NcoI and BamHI sites of the pCA plasmid through Gibson assembly. Thereafter, four plasmids, namely pRSF-RpALS, pCDF-RpALS-GtCGT^V93Q/Y193F, pWAS-anti-pabA, and pBBR1-zwf, were transformed into E. coli BL21(DE3), which was named an ALS strain.
(§2) Mutagenesis for a specific sequence was performed in the same manner as in Example 2. Here, plasmids containing gene mutants were constructed using pCDF-RpALS-GtCGT^V93Q/Y193F as a template and using primer pairs shown in Table 11 below. The plasmids thus constructed were transformed into the BL21 (DE3) strain along with three plasmids, namely pWAS-anti-pabA, pRSF-RpALS, and pBBR1-zwf, followed by flask culture under the same conditions as in Example 3 using the strains thus constructed. The concentration of aloesin produced was measured in an MRM mode of the HPLC Triple Quadrupole Mass Spectrometer (LCMS-8050, Shimadzu) of the KAIST Biocore Center.
as §2, with “13” for “11”

[1] = KM and Vmax of purified GtCGT enzymes, FK converted into dcII, UDP-Glo Glycosyltransferase Assay; assay type: biochemical, Gentiana triflora; details: substrate FK
Experimental: The purified enzyme was buffer-exchanged with an enzyme storage solution (50 mM HEPES, 20% glycerol, pH 7.5) using Amicon Ultra-15 Centrifugal Filters (regenerated cellulose, 50,000 NMWL; Merck), and in order to calculate KM and Vmax values, FK was converted into dcII using the purified enzyme. Here, a UDP-Glo Glycosyltransferase Assay Kit (Promega) was used to determine the extent of reaction. Since this kit enables measurement of free UDP generated as a reaction byproduct by luminescence, 200 μL of an enzyme reaction solution containing 0.1 μM enzyme and various concentrations of FK (50 mM HEPES, 0.1 mM UDP-glucose, 5 mM MgCl2, pH 7.5) was allowed to react at 25° C. for 1 hour, 25 μL thereof was taken out, and the amount of emitted light was measured using the kit.

luteolin = experiment: Conversion of luteolin to isoorientin by intracellularly expressed enzyme, flask culture; assay type: cell-based, E. coli
Experimental: as §1

naringenin = experiment: Conversion of naringenin to naringenin-6-C-glucoside by intracellularly expressed enzyme, flask culture; assay type: cell-based, E. coli
Experimental: as §1

FK = experiment: dcII production from FK by C-glycosyltransferase candidates and GtCGT mutants in FK-producing E. coli, flask culture; assay type: cell-based; details: flask culture
Experimental: Flask culture was carried out under the following conditions. Colonies were seeded into 10 mL of LB medium supplemented with appropriate concentrations of antibiotics, followed by culture overnight at 37° C. The culture fluid thus prepared was passaged into a 250 mL baffled flask containing 50 mL of R/2 medium supplemented with 3 g/L yeast extract and 20 g/L glucose (with 0.45 g/L ascorbic acid if necessary), followed by culture at 30° C. and 200 rpm. The composition of R/2 medium (pH 6.8) was as follows (per liter): 2 g of (NH4)2HPO4, 6.75 g of KH2PO4, 0.85 g of citric acid, 0.7 g of MgSO4·7H2O, and 5 ml of trace metal solution (TMS) [10 g of FeSO4·7H2O, 2.25 g of ZnSO4·7H2O, 1 g of CuSO4·5H2O, 0.5 g of MnSO4·5H2O, 0.23 g of Na2B4O7·10H2O, 2 g of CaCl2·2H2O, and 0.1 g of (NH4)6Mo7O24 per liter of 5 M HCl]. When OD600 of the culture fluid reached 0.6-0.8, 1 mM isopropyl β-D-1-thiogalactopyranoside (IPTG) was added to induce exogenous gene expression, followed by culture for 48 hours.
After culture, production analysis was performed under the following conditions. After flask culture, 50 mL of the culture fluid was centrifuged at 4,000 g for 30 minutes, and then the supernatant was desalted and concentrated. Here, Oasis HLB cartridges (Water) were used. The supernatant was concentrated 1-fold for FK, 30-fold for KA, 45-fold for dell, and 200-fold for carminic acid. The concentrated sample was re-dissolved in an appropriate volume of DMSO and impurities were then removed therefrom using a 0.22 μm PTFE filter. The prepared sample was analyzed by MS (LC/MSD VL; Agilent) coupled with HPLC (1100 series; Agilent). An Eclipse XDB-C18 column was used, 0.1% formic acid was used as buffer A, and methanol was used as buffer B. Analysis was performed in an ESI negative mode. For more accurate analysis of carminic acid, LC-MS/MS was performed using an HPLC Triple Quadrupole Mass Spectrometer (LCMS-8050, Shimadzu) (MRM mode).
Flask culture started by seeding colonies from LB agar plates into test tubes containing 10 mL of LB. As such, an appropriate concentration of antibiotics was added, followed by culture overnight at 37° C. at 220 rpm. 1 mL of the seed culture thus prepared was inoculated into a 250 mL baffled flask containing 50 mL of R/2 medium (supplemented with 3 g/L yeast extract and 20 g/L glucose), followed by culture at 30° C. and 200 rpm. The composition of R/2 medium was as follows (pH 6.8, per 1 L): 2 g of (NH4)2HPO4, 6.75 g of KH2PO4, 0.85 g of citric acid, 0.8 g of MgSO4·7H2O, and 5 ml of trace metal solution (TMS). The composition of TMS was as follows (based on 0.1 M HCl, per 1 L): 10 g of FeSO4·7H2O, 2.25 g of ZnSO4·7H2O, 1 g of CuSO4·5H2O, 0.58 g of MnSO4·5H2O, 0.02 g of Na2B4O7·10H2O, 2 g of CaCl2·2H2O, and 0.1 g of (NH4)6Mo7O24·4H2O. When OD600 of the culture fluid reached 0.6-0.8, 0.5 mM IPTG was added to induce exogenous enzyme expression, followed by culture for 48 hours. In all experiments for producing flavokermesic acid, kermesic acid, dcII, and carminic acid, 0.45 g/L of ascorbic acid was further added.
The production of carminic acid (CA) from FK was performed by two biosynthesis pathways, both of which require monooxygenase and C-glycosyltransferase. FK may be oxidized into KA or may be C-glycosylated into dcII. […] In order for the enzyme to have activity, however, it must be glycosylated, and since it also has a transmembrane helix and a signal peptide, successful expression in cells such as E. coli is considered difficult.
For the enzymes selected above, pCDF-DcCGT, pCDF-MiCGT, pCDF-SfCGT, pCDF-EnCGT, pCDF-OsCGT, pCDF-FeCGT, pCDF-GmCGT, pCDF-AvCGT, pCDF-AvCGT, pCDF-ZmCGT, and pCDF-GtCGT were constructed, and all genes except for the iroB gene amplified from genomic DNA of E. coli Nissle using the iroB_gib_F primer and the iroB_gib_R primer were artificially synthesized and inserted into the NdeI site of the pCDFDuet-1 plasmid using Gibson assembly. […]

B1: GtCGT^V93Q/Y193F: GtCGT variant with substitutions V93Q and Y193F (SEQ ID NO: 61) (protein)
chain: MGSLTNNDNLHIFLVCFIGQGVVNPMLRLGKAFASKGLLVTLSAPEIVGTEIRKANNLNDDQPIKVGSGMIRFEFFDDGWESVNGSKPFDVWQYINHLDQTGRQKLPIMLKKHEETGTPVSCLILNPLVPWVADVADSLQIPCATLWVQSCASFSAYYHYHHGLVPFPTESEPEIDVQLPGMPLLKYDEVPDFLHPRTPYPFFGTNILGQFKNLSKNFCILMDTFYELEHEIIDNMCKLCPIKPIGPLFKIPKDPSSNGITGNFMKVDDCKEWLDSRPTSTVVYVSVGSVVYLKQEQVTEMAYGILNSEVSFLWVLRPPSKRIGTEPHVLPEEFWEKAGDRGKVVQWSPQEQVLAHPATVGFLTHCGWNSTQEAISSGVPVITFPQFGDQVTNAKFLVEEFKVGVRLGRGELENRIITRDEVERALREITSGPKAEEVKENALKWKKKAEETVAKGGYSERNLVGFIEEVARKTGTK
modifications: GtCGT V93Q/Y193F (GtUF6CGT1V93Q/Y193F) variant
apigenin; apigenin to vitexin
  conversion rate: 8.1%
apigenin; from 185.2 μM apigenin, 36 hours, with pBBR1-galU-pgm-ndk
  vitexin produced: 15.0 µM
aloesone; BL21(DE3) with pWAS-anti-pabA, pRSF-RpALS, pBBR1-zwf and pCDF-GtCGT variant plasmid
  aloesin production: 0.06 µg/L
aloesone; flask culture
  aloesin amount compared with strain containing GtCGT: greater amount of aloesin than the strain containing GtCGT
[1]
  Vmax/KM value increase compared to GtCGT: 46.8%
luteolin; from 70 μM luteolin, 36 hours, with pBBR1-galU-pgm-ndk
  isoorientin produced: 27.9 µM
luteolin; luteolin to isoorientin
  conversion rate: 27.9%
naringenin; from 0.5 mM naringenin, 36 hours, with pBBR1-galU-pgm-ndk
  naringenin-6-C-glucoside produced: 51.6 µM
naringenin; naringenin to naringenin-6-C-glucoside
  conversion rate: 10.3%
FK; FK strain
  dcII production increase compared to wild-type GtCGT: 5.3 fold
FK; FK-producing E. coli strain
  dcII production: 0.74 mg CA eq/L

Source: patent US20240102068A1, “C-GLYCOSYLTRANSFERASE VARIANTS AND USE THEREOF” (KOREA ADVANCED INSTITUTE OF SCIENCE AND TECHNOLOGY, priority 2021, published 2024)
